The values below come from US20240059788A1 (Kyowa Kirin, published 2024).

The target in one experiment is T1, human EpCAM-GST (human, UniProt P16422 24-265).
T1 construct: also called soluble human EpCAM antigen; not shown: GST added to the C terminus (N5 vector)
T1 sequence: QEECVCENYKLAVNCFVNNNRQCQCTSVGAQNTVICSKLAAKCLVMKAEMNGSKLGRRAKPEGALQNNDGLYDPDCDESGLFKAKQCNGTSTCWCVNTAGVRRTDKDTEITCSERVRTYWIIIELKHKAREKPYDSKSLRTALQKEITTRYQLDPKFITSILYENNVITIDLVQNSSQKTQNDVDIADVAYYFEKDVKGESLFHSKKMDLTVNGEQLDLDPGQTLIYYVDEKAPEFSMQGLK
As to the kind of experiment: phage ELISA on immobilized EpCAM-GST. Background: In an ELISA, binding on a coated surface is turned into a signal by an enzyme label.

The next experiment concerns the target T2, monkey EpCAM-GST (monkey, UniProt Q1WER1 24-265).
T2 construct: not shown: GST added to the C terminus (N5 vector)
T2 sequence: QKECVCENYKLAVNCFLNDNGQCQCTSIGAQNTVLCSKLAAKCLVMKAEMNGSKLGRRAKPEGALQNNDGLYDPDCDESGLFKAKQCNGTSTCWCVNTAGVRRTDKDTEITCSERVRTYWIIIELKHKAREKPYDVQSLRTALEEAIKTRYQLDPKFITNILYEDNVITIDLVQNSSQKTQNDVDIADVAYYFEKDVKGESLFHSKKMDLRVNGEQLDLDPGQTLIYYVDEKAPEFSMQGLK
As to the kind of experiment: phage ELISA on immobilized EpCAM-GST.

The target in another experiment is T3, mouse EpCAM-GST (mouse, UniProt Q99JW5 24-266).
T3 construct: not shown: GST added to the C terminus (N5 vector)
T3 sequence: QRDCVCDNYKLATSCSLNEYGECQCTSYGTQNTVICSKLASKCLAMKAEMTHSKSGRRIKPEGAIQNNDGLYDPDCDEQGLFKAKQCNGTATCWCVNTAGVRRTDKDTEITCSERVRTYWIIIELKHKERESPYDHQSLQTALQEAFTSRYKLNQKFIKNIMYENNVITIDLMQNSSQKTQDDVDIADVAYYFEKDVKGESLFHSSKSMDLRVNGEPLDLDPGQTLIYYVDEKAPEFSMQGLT
As to the kind of experiment: phage ELISA on immobilized EpCAM-GST.

Another experiment concerns the target T4, monkey CD40-GST (monkey, UniProt P25942 21-193 (human entry)).
T4 construct: not shown: GST region of the N5 vector
T4 chain: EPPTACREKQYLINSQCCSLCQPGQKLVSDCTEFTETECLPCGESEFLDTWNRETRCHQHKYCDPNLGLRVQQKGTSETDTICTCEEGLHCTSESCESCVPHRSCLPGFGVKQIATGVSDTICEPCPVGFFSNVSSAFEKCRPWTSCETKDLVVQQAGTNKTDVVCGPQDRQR
As to the kind of experiment: phage ELISA on immobilized CD40-GST. How it is done: (§1) In the ELISA, MAXISORP (manufactured by NUNC, Inc.) in which the human or monkey CD40-GST in Example 1 was immobilized on each well and a portion to which the human or monkey CD40-GST is not bound was blocked using SuperBlock Blockig Buffer (manufactured by Thermo Fisher, Inc.) was used. To each well, each phage clone was added and reacted at room temperature for 30 minutes, and thereafter, each well was washed 3 times with PBS-T.
(§2) Subsequently, an anti-M13 antibody (manufactured by GE Healthcare, Inc.) labeled with horseradish peroxidase was diluted by 5000 times with PBS-T containing 10% Block Ace (manufactured by Dainippon Pharmaceutical Co., Ltd.), and the resultant was added in an amount of 50 μL to each well, and incubated at room temperature for 30 minutes. After the microplate was washed four times with PBS-T, a TMB chromogenic substrate solution (manufactured by DAKO, Inc.) was added in an amount of 50 μL to each well and incubated at room temperature for 10 minutes.

The next experiment concerns the target T5, human CD40-GST (human, UniProt P25942 21-193).
T5 construct: also called soluble human CD40 antigen; not shown: GST region of the N5 vector
Nature of the experiment: phage ELISA on immobilized CD40-GST. How it is done:
as §1, §2

The target of experiment [1] is T6, human EpCAM on human EpCAM/HEK 293 cells and Colo 205 cells (human, UniProt P16422 24-314).
T6 construct: Colo 205 cells carry native EpCAM; also called hEpCAM
T6 sequence: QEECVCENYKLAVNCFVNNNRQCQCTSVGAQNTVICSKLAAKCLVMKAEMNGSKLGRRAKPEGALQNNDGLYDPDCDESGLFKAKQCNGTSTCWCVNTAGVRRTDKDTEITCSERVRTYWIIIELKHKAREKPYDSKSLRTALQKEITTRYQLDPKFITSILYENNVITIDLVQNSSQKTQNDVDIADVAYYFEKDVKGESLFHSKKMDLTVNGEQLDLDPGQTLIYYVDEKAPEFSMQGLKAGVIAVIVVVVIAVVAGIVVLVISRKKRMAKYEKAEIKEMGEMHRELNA
Nature of the experiment: flow cytometry on Colo 205 cells and on human EpCAM/HEK 293 cells, antibody at 10 ug/mL, detection with goat F(ab')2 anti-human IgG R-PE [B), (D]. How it is done:
(§3) Ramos cells were suspended in Staining Buffer (SB) that is D-PBS(−) containing 0.1% NaN₃ and 1% FBS at a cell density of 1×10⁶ cells/mL, and the suspension was dispensed in a 96-well round bottom plate (manufactured by Falcon, Inc.) at 100 μL/well.
(§4) After further centrifugation (2000 rpm, 4° C., 2 minutes), the supernatant was removed, the resulting pellet was washed three times with 200 μL/well of SB, and thereafter, 1 μg/mL of Goat F(ab′)₂ Anti-Human IgG (γ chain specific) R-phycoerythrin (R-PE) Conjugate (manufactured by Southern Biotech, Inc.) was added at 50 μL/well, and the resultant was incubated for 30 minutes at ice temperature. After washing twice with SB, the cells were suspended in 200 μL/well of SB, and the fluorescence intensity of each cell was measured using a flow cytometer FACSCANTO II (manufactured by Becton, Dickinson and Company).
(§5) Similarly, Colo 205 cells, HEK 293 cells, and human EpCAM/HEK 293 cells were evaluated, respectively. As the negative control, IgG4 antibodies 5228P, L235E, and R409K mutants (hereinafter referred to as anti-DNP antibodies) produced according to the method described in Example 5 of WO 2006/033386 using a vector encoding VL and VH (GenBank accession No. VL U16688, VH U116687) of the 2,4-dinitrophenol (DNP) antibody described in Mol Immunol. 1996 June; 33 (9): 759-68 were used.

The target of experiment [2] is T7, human CD40 on Ramos cells (human, UniProt P25942 21-277).
T7 construct: Native CD40 of Ramos cells (Burkitt's lymphoma)
As to the kind of experiment: flow cytometry on Ramos cells, detection with goat F(ab')2 anti-human IgG R-PE [A]. How it is done:
as §3, §4

Experiment [3] has as its target T6, human EpCAM on human EpCAM/HEK 293 …. As to the kind of experiment: flow cytometry on Colo 205 cells and on human EpCAM/HEK 293 cells, detection with goat F(ab')2 anti-human IgG R-PE [B), (D]. How it is done:
as §3, §4, §5
Background: In flow cytometry, cells or beads pass a laser one at a time.

The target in another experiment is T8, mouse CD40 (mouse, UniProt P27512 20-193, limits assumed).
T8 sequence (looked up): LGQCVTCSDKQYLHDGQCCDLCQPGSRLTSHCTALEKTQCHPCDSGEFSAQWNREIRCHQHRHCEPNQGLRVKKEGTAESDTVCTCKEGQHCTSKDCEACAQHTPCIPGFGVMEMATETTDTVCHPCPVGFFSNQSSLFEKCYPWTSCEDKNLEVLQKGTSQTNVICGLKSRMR
As to the kind of experiment: not described.

B1: Ep203 phage clone (scFv, V domains shown)
VH: EVQLVQSGAEVKKPGASVKVSCKASGFTFSSYYMHWVRQAPGQGLEWMGIVNPTGGATSYAQKFQGRVTMTRDTSTSTVYMELSSLRSEDTAVYYCAKHGYGASTLFDSWGQGTLVTVSS
VL: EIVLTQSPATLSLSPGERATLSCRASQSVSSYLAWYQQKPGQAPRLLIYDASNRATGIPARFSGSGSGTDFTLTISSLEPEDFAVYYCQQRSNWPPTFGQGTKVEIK
B1: the binding result with human EpCAM-GST, with monkey EpCAM-GST and with mouse EpCAM-GST was “binds” in each case.

B2: R1066 phage clone (scFv, V domains shown)
VH: QVQLQQWGAGLLKPSETLSLTCAVYGGSFSGYYWSWIRQPPGKGLEWIGEINHGGITHYNPSLKSRVTISVDTSKNQFSLKLSSVTAADTAVYYCARDNYYGSGSYYKYDYYGMDVWGQGTTVTVSS
VL: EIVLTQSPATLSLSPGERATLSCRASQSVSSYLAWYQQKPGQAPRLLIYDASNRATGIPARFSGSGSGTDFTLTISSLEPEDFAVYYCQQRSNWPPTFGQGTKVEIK
For the molecule B2, the binding result with monkey CD40-GST and with human CD40-GST was “binds” in each case.

B3: Epc051 phage clone (scFv, V domains shown)
VH: EVQLVQSGAEVKKPGASVKVSCKASGYTFTSNYMHWVRQAPGQGLEWMGIINPSGGATSYAQKFQGRVTMTRDTSTSTVYMELSSLRSEDTAVYYCASGGYYGSVIMDVWGQGTLVTVSS
VL: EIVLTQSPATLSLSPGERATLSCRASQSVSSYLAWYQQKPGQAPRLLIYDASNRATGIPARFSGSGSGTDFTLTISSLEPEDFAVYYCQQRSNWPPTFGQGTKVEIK
As to B3, the binding result with human EpCAM-GST, with monkey EpCAM-GST and in the experiment with mouse EpCAM-GST was “binds” each time.

B4: anti-EpCAM monoclonal antibody 3622W94 (antibody, V domains shown)
VH: QVQLVQSGPEVKKPGASVKVSCKASGYTFTNYGMNWVRQAPGQGLEWMGWINTYTGEPTYGEDFKGRFAFSLDTSASTAYMELSSLRSEDTAVYFCARFGNYVDYWGQGSLVTVSS
VL: DIVMTQSPLSLPVTPGEPASISCRSSKNLLHSNGITYLYWYLQKPGQSPQLLIYQMSNLASGVPDRFSSSGSGTDFTLKISRVEAEDVGVYYCAQNLEIPRTFGQGTKVEIK
For B4, the binding result is recorded as “binds” in experiment [1] and “no binding (tested: 10 ug/mL)” in experiment [2].

B5: anti-CD40 monoclonal antibody 21.4.1 (antibody, V domains shown)
VH: not shown
VL: DIQMTQSPSSVSASVGDRVTITCRASQGIYSWLAWYQQKPGKAPNLLIYTASTLQSGVPSRFSGSGSGTDFTLTISSLQPEDFATYYCQQANIFPLTFGGGTKVQIK
notes: also called anti-CD40 agonistic antibody; CP870,893
Turning to B5, the binding result in experiment [3] is reported as “no binding (tested: 10 ug/mL)”; with mouse CD40, “no binding”.

B6: Epc112 phage clone (scFv, V domains shown)
VH: EVQLVQSGTEVKKPGASVKVSCRASGNTFTNYYIHWVRQAPGQGLEWMGIINPSGGATNYAQILQGRVTMTRDTSTSTVYMELSSLRSEDTAVYYCAGGGSAATFAYWGQGTLVTVSS
VL: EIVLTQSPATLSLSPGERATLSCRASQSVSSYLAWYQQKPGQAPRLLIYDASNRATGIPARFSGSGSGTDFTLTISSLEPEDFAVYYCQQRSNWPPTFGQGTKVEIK
As for B6, the binding result in the experiment with human EpCAM-GST, in the experiment with monkey EpCAM-GST and in the experiment with mouse EpCAM-GST was “binds” each time.

B7: R2178 phage clone (scFv, V domains shown)
VH: QVQLQQWGAGLLKPSETLSLTCAVYGGSFSGYYWSWIRQSPGKGLEWIGEINHGGITNYNPSLKSRVTISVDTSKNQFSLKLGSVTAADTAVYYCARDNYYGSGSNDGVYQYYGIDVWGQGTTVTVSS
VL: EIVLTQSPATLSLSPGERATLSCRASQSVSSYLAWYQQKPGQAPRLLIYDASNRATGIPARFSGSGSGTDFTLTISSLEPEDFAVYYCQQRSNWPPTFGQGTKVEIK
Regarding B7, the binding result with monkey CD40-GST and in the experiment with human CD40-GST was “binds” each time.

B8: R2089 phage clone (scFv, V domains shown)
VH: EVQLVQSGAEVKKPGASVKVSCKASGYSFTRYIMHWVRQAPGQRLEWMGWINAGNGNTKYSQKFQGRVTITRDTSANTAYMELSSLRSEDTAVYYCARDEPVAGSFFDYWGQGTLVTVSS
VL: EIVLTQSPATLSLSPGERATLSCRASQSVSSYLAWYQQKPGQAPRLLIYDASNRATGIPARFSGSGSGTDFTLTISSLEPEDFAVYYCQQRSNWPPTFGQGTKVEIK
On to B8, for which the binding result with monkey CD40-GST and in the experiment with human CD40-GST was “binds” throughout.
